Source: the supplement of paper PMC12764529
± gives the half width of the 95% confidence interval.

Assays:
[1] = folding stability dG unfold from trypsin proteolysis; higher = more stable
How it was run: (§1)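 Digests were run with trypsin and chymotrypsin at 11 concentrations in threefold dilutions, plus a no-protease condition, on designed mini-proteins in a PA-tagged cDNA display construct. The mini-proteins were under 80 residues, had no cysteine, and were kept only when AlphaFold2 dimer inter-PAE was above 15. After sequencing, Bayesian fitting of the counts gave K50, from which unfolding free energy was derived against a sequence-predicted unfolded-state K50 and a shared folded-state K50, per protease or combined.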

[2] = folding stability dG unfold from chymotrypsin proteolysis; higher = more stable
How it was run: as §1

[3] = folding stability dG unfold (combined trypsin and chymotrypsin); higher = more stable
How it was run: as §1

Row | Sequence | folding stability dG unfold [1] [kcal/mol] | folding stability dG unfold [2] [kcal/mol] | folding stability dG unfold [3] [kcal/mol]
1 | SAGGMTLVIKVTNKDGSTLTITFDAETNTITITFPDGTTRTITVPADTTIEELIAALPPDAKVEILPASAGG [r13_696_TrROS_Hall] | 3.42 ± 0.073 | 4.75 ± 0.11 | 4.55 ± 0.1
2 | SAGGSAGGSAGGSGAEELAKKLQEKLEELGLEAEITVEYDEETNELTITITVDGKEYEFSAGGSAGGSAGGS [r4_312_TrROS_Hall] | 2.24 ± 0.13 | 1.74 ± 0.063 | 1.94 ± 0.06
3 | SAGGSAGGGVYLNGLLPGGVALLSAPTASGEYTLILISPDNRALIFSYPADTGTPRVAEIDLPTSAGGSAGG [r6_159_TrMRF] | 0.577 ± 0.062 | 1.87 ± 0.065 | 1.49 ± 0.11
4 | SAGGIDLDNMSPEEAKERARDTVREFRELFPPEKKYKFKIKVTIDYRDPGNGRQRTVTVEAPIEFTPDSAGG [r13_385_TrROS] | 0.636 ± 0.12 | 0.862 ± 0.28 | 0.753 ± 0.24
5 | SAGGSAGGKPPKFKVEVFIFPESNSVLVKIELPNSTLPFFIDKNGKIKGIKIIGDKVFNVSEGLSAGGSAGG [r6_241_TrMRF] | 1.42 ± 0.12 | 2.17 ± 0.097 | 1.96 ± 0.17
6 | SAGGSMEVEEFETTDPATGKPYRLRFTYDSETGIPVLEVFAPDGTPLATVPVEPGEAEAARERLGASAGGSA [r2_115_JUSTAS] | 0.0239 ± 0.063 | 1.14 ± 0.085 | 0.767 ± 0.058
7 | SAGGSAGGMIIQEVEEFKDKSEEEVKKKMLEELKKKYPKSYKVKITVTKNPSGKYTVTVTITPNSAGGSAGG [r6_964_JUSTAS] | 2.19 ± 0.047 | 2.65 ± 0.059 | 2.51 ± 0.071
8 | SAEIAELLKELGFEVEVEKVEVKEVEVTVTDENGKKYKVKFVEVKITVKVTNPDGSKRTFSLDELKKLLSAG [r14_578_TrROS_Hall] | 2.84 ± 0.14 | 3.73 ± 0.11 | 3.45 ± 0.13
9 | SGSPSDDIVTTPLPGPSERATFPDGSSISRSPAGVTTTTSPTSITTTTTTPSATVTSTTTSLPPPSPSAPSA [r9_901_JUSTAS] | -0.696 ± 0.034 | 0.184 ± 0.015 | -0.0591 ± 0.07
10 | SAGGSAGGSAAPEVTIKVTITYDPETNVLTIEAEATLPDGRKVRITARINKDGSIEIVSVEEVSAGGSAGGS [r12_1029_TrROS_Hall] | 4.63 ± 0.64 | 4.61 ± 0.91 | > 6
11 | SAGGSAGGSAGGSLIVPAKDAVRFAEEWRRRFGGRFEIRGIPGIPFVPILVRPPDPAEFSAGGSAGGSAGGS [r4_419_TrMRF] | -0.418 ± 0.38 | 0.703 ± 0.096 | 0.491 ± 0.097
12 | SAGGSHEYTHEYRIPGGYAIRIKTKWRFNPGNNNIQIEEPDIELVPLPPVPPPPVPPEDADKNGIPPDDSAG [r5_393_TrROS] | 1.19 ± 0.019 | 2.29 ± 0.12 | 1.74 ± 0.12
13 | SADNYFIRIKHKLNGKPRERTYPIDSPEEALDAIKDELQPHFPGAPIDKVKIDVFNPNNGEWQEITLKISAG [r14_54_TrROS] | -0.0876 ± 0.11 | 0.373 ± 0.13 | 0.256 ± 0.13
14 | SAGGSKTLIIKIEKIEEFYPPFNNDKIKIPVSVYDPETGEKVLSNEEVAKILEKLFPGIKIGWEEGSAGGSA [r2_27_TrMRF] | 1.06 ± 0.032 | 0.719 ± 0.036 | 0.937 ± 0.06
15 | SMRIVTEDGQELTIVLPKVPPNMTPEQLRKALEEAGVEVEEITFDEETGEVTVKIRFKDAEKAEEALKKASA [r9_1154_TrROS_Hall] | 1.51 ± 0.059 | 0.957 ± 0.12 | 1.21 ± 0.14
16 | SAGGSAGGSAGGHKIDIEWERYEDGMYRVTITIRSNNGPRKIPFWVPPGYETADDILKQISAGGSAGGSAGG [r7_75_TrROS] | 1.8 ± 0.075 | 1.71 ± 0.066 | 1.88 ± 0.18
17 | SAGGIKEAFEAGVEVKDVEVPVLFPDGSEAEVVEVDPVDDGVRVVLRNPVTGELFEREIPPELIEPRPSAGG [r13_340_TrMRF] | 0.653 ± 0.019 | 0.172 ± 0.053 | 0.484 ± 0.07
18 | SAGGSMRITKIEIEPNPNGDYKITITMTENGHITVEVMNPNGKPKEVEVNMPNGDPEEVVKEAIKASAGGSA [r2_298_TrROS] | 0.686 ± 0.041 | 2.25 ± 0.1 | 1.63 ± 0.083
19 | SDDPKDKKKPKPEITMVPIVFKIPPGDELKIEEDPNGMIEVRVPNGHWIRVWILVNPDGNILNVMIEPWPSA [r9_1195_TrROS] | 2.01 ± 0.15 | 3.21 ± 0.066 | 2.82 ± 0.23
20 | SAGGSAGGSAKPEKPEKVELKPKVKFVKVKVRLRFSFTLENGEKVEVELEATFLFVDGKLVSAGGSAGGSAG [r3_380_TrROS_Hall] | 3.97 ± 0.22 | 5.31 ± 0.13 | 5.11 ± 0.2
21 | SAGGSADYYLIVIEIEKNGKKYKIVLVVSKEDLKKLEEEIKKKFPDVKIKIKVIKFPSKEEALKALSAGGSA [r15_889_TrROS_Hall] | 2.97 ± 0.1 | 3.74 ± 0.054 | 3.46 ± 0.12

Row | Sequence | folding stability dG unfold [1] [kcal/mol] | folding stability dG unfold [2] [kcal/mol] | folding stability dG unfold [3] [kcal/mol]
22 | SMKVKIKIEVYKPENKLIVKVYFPEIGKEIVFEFDSLEGLFEKIKKELGLKEENIEIVEVKVKEVDPSELSA [r9_909_TrMRF] | 2.21 ± 0.16 | 1.93 ± 0.048 | 2.2 ± 0.18
23 | SAGGSAGGMTIKIEVNGKIIEIELPEGIKEITKIEIKKDGTITLYIKDNKKKITIKLDKLKKLKSAGGSAGG [r6_369_TrROS_Hall] | 1.2 ± 0.09 | 3.01 ± 0.1 | 2.34 ± 0.27
24 | SAGGSAKRVITIGNDEDQERVQEEAEDNGVKKRPIPGDWDDFLSNLQDNFPEIDRIVIPNGREFEISAGGSA [r15_712_TrROS] | -0.659 ± 0.32 | -1.27 ± 0.32 | -0.953 ± 0.44
25 | SAGGELTEEQRKRLEEERRRREEEERRRQAAPVKVTVTVEFDPETGEVRVRVFNENGELVAEARFKVESAGG [r13_247_TrROS_Hall] | 2.08 ± 0.092 | 3.77 ± 0.14 | 3.17 ± 0.19
26 | SAGGSAGGSASIPELAEELGLPAEVEVTEDVEPEKPVVYPVVVREPGGGEVRVVPVVLPPGVSAGGSAGGSA [r18_313_JUSTAS] | -0.223 ± 0.14 | 1.36 ± 0.043 | 0.922 ± 0.16
27 | SAGGSAGGSADPSVKPPVIKRLVIDIPLEELEKLFPGKLEKAVELAEEAVKLGFDEVVILGGSAGGSAGGSA [r18_441_TrMRF] | 0.116 ± 0.031 | 1.12 ± 0.023 | 0.793 ± 0.049
28 | SAGGSAGGPKTKTVDFIVPALDENGNPLPDNAKFTFKLPDKTINIDFKRDKDSDYVLVKATITNSAGGSAGG [r6_657_TrMRF] | 0.197 ± 0.11 | 0.901 ± 0.14 | 0.625 ± 0.098
29 | SAGRIRKAIREAFGMDITSIDIDVKENPNGSKKVEIDIHMNNPSQRRRMADAIIEELGYPIKEIEITPMSAG [r5_542_TrROS] | 0.748 ± 0.24 | 0.558 ± 0.2 | 0.629 ± 0.17
30 | SAGGMSTTYTLKYPGTTVTVTFNPGSVTVDDTDPANPVTKPLPVPPGKPLTLAEVKAALAAAGYAVAESAGG [r13_687_JUSTAS] | -0.204 ± 0.15 | 0.0182 ± 0.33 | 0.0161 ± 0.21
31 | SAGGSAAGYAVLVRVEEVRLTSFRRRADGSLLEVDPDVELKLEVLAVFRIYPSPGDGWVVDPSDPASAGGSA [r15_162_TrMRF] | 2.73 ± 0.057 | 3.827 ± 0.025 | 3.53 ± 0.062
32 | SAGGSAKKPKPIYLKLTITLSEEEAKKLAEELAEELKKLFPDVEIVEIKVEKDENGNVTVTIYVRLSAGGSA [r15_718_TrROS_Hall] | 3.14 ± 0.22 | 4.57 ± 0.14 | 4.25 ± 0.28
33 | SAGGSAIPPDNVKEEREITDPDDDTKIKVWRYPNDGRYWVQVYNKKGEPKWKQLGPMPANQAEDLISAGGSA [r15_295_TrROS] | 0.0985 ± 0.35 | -0.31 ± 0.38 | -0.057 ± 0.23
34 | SAGGEEEKVVLTPEEIERLLKELAEALGLEVTITEIEVEEDYVTITVEIKVDGKTLTLTLKLRIEPEPSAGG [r13_652_TrROS_Hall] | 4 ± 0.42 | 5.23 ± 0.15 | 5.14 ± 0.36
35 | SASMIQKYFKSQGYKIEKIEEKTLPNGERVVSYKITSTVNVPPNEKGVSKPVKKTTELTLSTEEAIKLGSAG [r14_16_JUSTAS] | 0.304 ± 0.14 | 1.32 ± 0.21 | 1.04 ± 0.15
36 | SAGGVYVIKIKFEFGDGLKAELFIMFQSWEQAKEQAENLARNHGLRIDEIEVVPIKPMPPPDPDDQKSAGGS [r8_364_TrROS] | 2.46 ± 0.14 | 4.13 ± 0.14 | 3.63 ± 0.29
37 | SAGGMIEVTIPLEEYFDENGNPTEEAKKKIEEAKKKAEELKKKGEPAEVKVTVVEPEPYVGPDNPELVSAGG [r13_731_JUSTAS] | 0.278 ± 0.29 | 0.569 ± 0.059 | 0.652 ± 0.28
38 | SAGGSAGGSAGGIKIERDPNYWVIEIEIPIYMPQPDPDGEIKEPKPIAPITITILIPPGGSAGGSAGGSAGG [r7_3_TrROS] | 2.09 ± 0.17 | 2.22 ± 0.11 | 2.21 ± 0.2
39 | SAGGSAGGSGLTKELAKKFNVTAIEEFENGLVKILTKPPIKGNPYLAIIDPKNKKVYIIPLNPSAGGSAGGS [r12_944_TrMRF] | 0.849 ± 0.037 | 1.62 ± 0.082 | 1.29 ± 0.071
40 | SAGMTVEELRNLPPGYRVLEVKFDPETGKYTVVVERPDEDGVPHKVTIEVDGLEELEEFFKTGLTELKLSAG [r5_905_TrMRF] | 1.73 ± 0.045 | 0.897 ± 0.1 | 1.35 ± 0.16
41 | SAGGSAGGSGIKIIMEFIFPDDGYIFKIEIDIKPNPENGEPVIEMKIEMYPIDPGQPPDLKDLSAGGSAGGS [r12_700_TrROS] | 2.48 ± 0.11 | 3.45 ± 0.071 | 3.26 ± 0.2
42 | SAGGSAGGPANKKYLLVADAEVDPETGTVKVTVEYPNGKKVEFTFPAKNFHPDEKVLVPVVVTDSAGGSAGG [r6_768_TrMRF] | 1.02 ± 0.052 | 0.67 ± 0.17 | 0.86 ± 0.1
